B1: full-length recombinant Cnm (rCnm-FL) (domain or fragment)
chain: ASDVSNNVSSLTVSPTQINDGGKTTVRFEFDEHAQNIKAGDTITVNWQNSGTVRGTGYTKTIKLEVQGKYVGDLVVTQDKAVVTFNDSITGLQNITGWGEFEIEGRNFTDTTTGNTGSFQVTSGGKTSEVTVVKSASGTTGVFYYKTGDMQTDDTNHVRWFLNINNENAYVDSDIRIEDDIQSGQTLDIDSFDITVNGSESYRGQEGINQLAQRYGATISADSASGHISVYIPQGYASLNSFSIMYLTKVDNPDQKTFENNSKAWYKENGKDAVDGKEFNHSVANVNAAGGVDGRTTTTTEKPTTTTEAPTTTEAPTTTEAPTTTETPTTTEAPTTTEAPTTTEAPTTTEAPTTTETPTTTEAPTTTEAPTTTEAPTTTEAPTTTEAPTTTEAPTTTEAPTTTEASSETTKAEEKTTEVKEPEKTTTTAPAGKT
B2: rCnm N1+2 (domain or fragment)
chain: SDVSNNVSSLTVSPTQINDGGKTTVRFEFDEHAQNIKAGDTITVNWQNSGTVRGTGYTKTIKLEVQGKYVGDLVVTQDKAVVTFNDSITGLQNITGWGEFEIEGRNFTDTTTGNTGSFQVTSGGKTSEVTVVKSASGTTGVFYYKTGDMQTDDTNHVRWFLNINNENAYVDSDIRIEDDIQSGQTLDIDSFDITVNGSESYRGQEGINQLAQRYGATISADSASGHISVYIPQGYASLNSFSIMYLTKVDNPDQKTFENNSKAWYKENGKDAVDGKEFNHSVANVNAAGGVDGR
B3: rCnm N2 (domain or fragment)
chain: ASGTTGVFYYKTGDMQTDDTNHVRWFLNINNENAYVDSDIRIEDDIQSGQTLDIDSFDITVNGSESYRGQEGINQLAQRYGATISADSASGHISVYIPQGYASLNSFSIMYLTKVDNPDQKTFENNSKAWYKENGKDAVDGKEFNHSVANVNAAGGVDGR

biological target: T1, type I collagen (BD-Biosciences) (UniProt P02454 152-1207; P02466 86-1125); experiment: SPR
T1 sequence (P02454 152-1207, chain 1 of 2): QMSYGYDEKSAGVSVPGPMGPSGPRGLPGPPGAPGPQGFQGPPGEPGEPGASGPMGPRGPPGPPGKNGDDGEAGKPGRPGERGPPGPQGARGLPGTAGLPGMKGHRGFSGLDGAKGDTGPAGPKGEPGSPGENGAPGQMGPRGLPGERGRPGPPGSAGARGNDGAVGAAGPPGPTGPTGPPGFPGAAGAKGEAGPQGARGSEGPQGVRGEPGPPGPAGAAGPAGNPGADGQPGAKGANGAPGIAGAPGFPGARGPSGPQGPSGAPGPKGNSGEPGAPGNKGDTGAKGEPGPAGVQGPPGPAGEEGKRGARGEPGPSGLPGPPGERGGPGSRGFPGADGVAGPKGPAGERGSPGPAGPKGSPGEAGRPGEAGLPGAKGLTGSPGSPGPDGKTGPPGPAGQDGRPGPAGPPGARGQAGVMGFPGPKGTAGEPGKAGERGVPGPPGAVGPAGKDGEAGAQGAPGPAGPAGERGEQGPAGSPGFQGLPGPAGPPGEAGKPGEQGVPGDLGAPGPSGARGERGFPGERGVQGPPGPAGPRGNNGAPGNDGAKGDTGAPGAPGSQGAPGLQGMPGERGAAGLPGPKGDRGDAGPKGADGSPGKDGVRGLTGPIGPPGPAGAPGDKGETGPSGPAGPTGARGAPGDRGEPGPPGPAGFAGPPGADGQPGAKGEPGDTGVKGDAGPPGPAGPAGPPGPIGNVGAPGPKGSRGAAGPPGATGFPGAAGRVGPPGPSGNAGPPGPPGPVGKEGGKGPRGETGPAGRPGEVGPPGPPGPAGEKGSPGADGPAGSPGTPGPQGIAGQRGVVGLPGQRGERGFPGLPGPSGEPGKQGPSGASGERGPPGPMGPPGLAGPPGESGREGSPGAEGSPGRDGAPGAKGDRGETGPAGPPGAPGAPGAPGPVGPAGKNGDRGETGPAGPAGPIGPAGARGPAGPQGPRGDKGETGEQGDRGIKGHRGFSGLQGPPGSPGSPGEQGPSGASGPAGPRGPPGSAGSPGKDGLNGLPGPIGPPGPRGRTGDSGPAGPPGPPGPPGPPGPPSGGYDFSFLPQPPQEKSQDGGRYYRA
T1 sequence (P02466 86-1125, chain 2 of 2): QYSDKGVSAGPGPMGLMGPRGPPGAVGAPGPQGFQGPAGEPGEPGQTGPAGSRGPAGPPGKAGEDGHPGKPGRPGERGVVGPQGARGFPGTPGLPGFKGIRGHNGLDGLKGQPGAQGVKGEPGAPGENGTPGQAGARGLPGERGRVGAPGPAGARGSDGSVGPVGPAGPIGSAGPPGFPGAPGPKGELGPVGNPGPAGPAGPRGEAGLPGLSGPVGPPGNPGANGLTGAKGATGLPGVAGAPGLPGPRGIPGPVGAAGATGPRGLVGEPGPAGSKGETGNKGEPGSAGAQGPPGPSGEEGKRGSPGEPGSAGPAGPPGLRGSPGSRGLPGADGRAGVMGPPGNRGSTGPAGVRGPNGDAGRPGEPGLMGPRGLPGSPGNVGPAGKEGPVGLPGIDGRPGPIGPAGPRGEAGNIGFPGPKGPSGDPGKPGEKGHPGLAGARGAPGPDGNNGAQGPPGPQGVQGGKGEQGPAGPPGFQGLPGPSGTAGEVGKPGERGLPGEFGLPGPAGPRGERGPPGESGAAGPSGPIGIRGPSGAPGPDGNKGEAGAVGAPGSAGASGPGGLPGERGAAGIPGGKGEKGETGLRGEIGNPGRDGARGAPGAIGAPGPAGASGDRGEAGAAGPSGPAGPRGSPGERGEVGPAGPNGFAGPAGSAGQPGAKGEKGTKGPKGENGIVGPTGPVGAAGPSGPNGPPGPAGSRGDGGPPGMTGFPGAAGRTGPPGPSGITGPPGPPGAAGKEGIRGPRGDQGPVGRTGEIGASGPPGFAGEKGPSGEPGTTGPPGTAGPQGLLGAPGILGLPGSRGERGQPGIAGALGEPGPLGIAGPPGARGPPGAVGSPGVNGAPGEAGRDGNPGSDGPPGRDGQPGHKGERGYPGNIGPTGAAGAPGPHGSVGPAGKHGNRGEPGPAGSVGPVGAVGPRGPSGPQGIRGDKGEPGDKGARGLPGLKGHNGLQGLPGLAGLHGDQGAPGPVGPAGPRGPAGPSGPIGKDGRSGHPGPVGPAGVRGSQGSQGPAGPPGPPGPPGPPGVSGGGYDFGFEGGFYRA

Binder	koff [s⁻¹]
B1	0.00198
B2	0.0244
B3	0.000335

biological target: T1, type I collagen (BD-Biosciences); experiment: SPR; remark: another data set of the same source

Binder	Ka [M⁻¹]
B1	3.46e+06
B2	1.22e+06
B3	221000

biological target: T1, type I collagen (BD-Biosciences); experiment: SPR; remark: another data set of the same source

Binder	Kd [nM]
B1	289
B2	817
B3	4530

Source: PMC5856776 (2018)
